Laboratory results as given in patent US20150086555A1.

B1: TCN-523 (5248_A17) (antibody, V domains shown)
VH: QVQLVQSGAEVKKPGSSVKVSCKASGGSFSNYAFSWVRQAPGQGLEWMGGTIPLLGTTNYAQKFQGRVTISADQFTSTAYMELGSLRSEDTAVYYCTRRKMTTAFDSWGQGTLVTVSS
VL: QPVLTQPPSASASLGASVTLTCTLSSAYSNYKVDWYQQRPGKGPRFVMRVGTGGIVGSKGDGIPDRFSVLGSGLNRYLTIKNIQEEDESDYHCGADHGSGSNFVSPYVFGGGTKLTVL
B2: TCN-534 (5249_B02) (antibody, V domains shown)
VH: QVQLVQSGAEVKKPGSSVKVSCRESGGTFNGYTITWVRQAPGQGLEWMGGIIPMMGTVNYAQKLQGRVTITTDYFTKTAYMDLNNLRSEDTAMYYCVKIRYTGQQLLWGQGTLVTVSS
VL: DIQMTQSPSTLSASIGDRVTITCRASQSIASWLAWYQQKPGKAPKLLIYEAVNLESGVPSRFSGSGSGTDFTLTISSLQPDDFATYFCQHYGTISQTFGGGTKVEIK

These binders were tested against recombinant homotrimeric HA A/Hong Kong/156/97 H5N1 (Influenza A virus A/Hong Kong/156/97 (H5N1)) (assay: protein microarray, purified IgG, trimeric HA). Details: remark: other sources report otherwise.

How did the Trimeric HA Binding: RLU turn out when B1 was run?
The Trimeric HA Binding: RLU was 5810 RLU.

For B2, which Trimeric HA Binding: RLU is on record?
The Trimeric HA Binding: RLU was 13200 RLU.

The binders below were run against recombinant homotrimeric HA A/chicken/Vietnam/NCVD-016/08 H5N1 (Influenza A virus A/chicken/Vietnam/NCVD-016/2008(H5N1)) (assay: protein microarray, purified IgG, trimeric HA). Details: remark: other sources report otherwise.

Which Trimeric HA Binding: RLU does the source give for B1 here?
Its Trimeric HA Binding: RLU is 4960 RLU.

For B2, which Trimeric HA Binding: RLU is on record?
The Trimeric HA Binding: RLU was 5170 RLU.

What follows are binders tested against recombinant homotrimeric HA A/Solomon Islands/3/06 H1N1 (Influenza A virus A/Solomon Islands/3/2006(H1N1)) (assay: protein microarray, purified IgG, trimeric HA). Details: remark: other sources report otherwise.

Which Trimeric HA Binding: RLU does the source give for B1 here?
The Trimeric HA Binding: RLU was 5130 RLU.

B2 was tested. Which Trimeric HA Binding: RLU did it give?
The Trimeric HA Binding: RLU was 11400 RLU.

These binders were tested against recombinant homotrimeric HA A/Hong Kong/2108/03 H9N2 (Influenza A virus A/HK/2108/2003(H9N2)) (assay: protein microarray, purified IgG, trimeric HA). Details: remark: other sources report otherwise.

With B1 as the binder, how does the Trimeric HA Binding: RLU read?
Its Trimeric HA Binding: RLU is 163 RLU.

Which Trimeric HA Binding: RLU does the source give for B2 here?
The Trimeric HA Binding: RLU was 172 RLU.

These binders were tested against recombinant homotrimeric HA A/Japan/305/57 H2N2 (Influenza A virus A/Japan/305/1957(H2N2)) (assay: protein microarray, purified IgG, trimeric HA). Details: remark: other sources report otherwise.

Which Trimeric HA Binding: RLU does the source give for B1 here?
The Trimeric HA Binding: RLU was 15300 RLU.

B2 was tested. Which Trimeric HA Binding: RLU did it give?
Its Trimeric HA Binding: RLU is 29100 RLU.

These binders were tested against recombinant homotrimeric HA A/Indonesia/5/05 H5N1 (Influenza A virus A/Indonesia/5/2005(H5N1)) (assay: protein microarray, purified IgG, trimeric HA). Details: remark: other sources report otherwise.

How did the Trimeric HA Binding: RLU turn out when B1 was run?
The Trimeric HA Binding: RLU was 16900 RLU.

B2 was tested. Which Trimeric HA Binding: RLU did it give?
The Trimeric HA Binding: RLU was 19500 RLU.

What follows are binders tested against recombinant homotrimeric HA A/Anhui/1/05 H5N1 (Influenza A virus A/Anhui/1/2005(H5N1)) (assay: protein microarray, purified IgG, trimeric HA). Details: remark: other sources report otherwise.

How did the Trimeric HA Binding: RLU turn out when B1 was run?
The Trimeric HA Binding: RLU was 7240 RLU.

Which Trimeric HA Binding: RLU does the source give for B2 here?
Its Trimeric HA Binding: RLU is 1900 RLU.

Each binder was assayed against recombinant homotrimeric HA A/South Carolina/1/18 H1N1 (Influenza A virus A/South Carolina/1/18 (H1N1)) (assay: protein microarray, purified IgG, trimeric HA). Details: remark: other sources report otherwise.

Which Trimeric HA Binding: RLU does the source give for B1 here?
The Trimeric HA Binding: RLU was 9720 RLU.

How did the Trimeric HA Binding: RLU turn out when B2 was run?
Its Trimeric HA Binding: RLU is 9240 RLU.

Each binder was assayed against recombinant homotrimeric HA A/Netherlands/219/03 H7N7 (Influenza A virus A/Netherlands/219/03(H7N7)) (assay: protein microarray, purified IgG, trimeric HA). Details: remark: other sources report otherwise.

How did the Trimeric HA Binding: RLU turn out when B2 was run?
Its Trimeric HA Binding: RLU is 3420 RLU.

What follows are binders tested against recombinant homotrimeric HA A/Egypt/3300-NAMRU3/08 H5N1 (Influenza A virus A/Egypt/3300-NAMRU3/2008(H5N1)) (assay: protein microarray, purified IgG, trimeric HA). Details: remark: other sources report otherwise.

For B1, which Trimeric HA Binding: RLU is on record?
Its Trimeric HA Binding: RLU is 21300 RLU.

For B2, which Trimeric HA Binding: RLU is on record?
The Trimeric HA Binding: RLU was 18200 RLU.

These binders were tested against recombinant homotrimeric HA A/California/4/09 H1N1 (Influenza A virus A/California/04/2009(H1N1)) (assay: protein microarray, purified IgG, trimeric HA). Details: remark: other sources report otherwise.

How did the Trimeric HA Binding: RLU turn out when B1 was run?
Its Trimeric HA Binding: RLU is 19500 RLU.

How did the Trimeric HA Binding: RLU turn out when B2 was run?
The Trimeric HA Binding: RLU was 20700 RLU.

These binders were tested against recombinant homotrimeric HA A/northern shoveler/California/HKWF115/07 H6N4 (Influenza A virus A/northern shoveler/California/HKWF115/2007(H6N1)) (assay: protein microarray, purified IgG, trimeric HA). Details: remark: other sources report otherwise.

Which Trimeric HA Binding: RLU does the source give for B1 here?
The Trimeric HA Binding: RLU was 3370 RLU.

B2 was tested. Which Trimeric HA Binding: RLU did it give?
Its Trimeric HA Binding: RLU is 21700 RLU.

Each binder was assayed against recombinant homotrimeric HA A/Hong Kong/1073/99 H9N2 (Influenza A virus A/Hong Kong/1073/99 (H9N2)) (assay: protein microarray, purified IgG, trimeric HA). Details: remark: other sources report otherwise.

Which Trimeric HA Binding: RLU does the source give for B1 here?
Its Trimeric HA Binding: RLU is 2130 RLU.

How did the Trimeric HA Binding: RLU turn out when B2 was run?
Its Trimeric HA Binding: RLU is 918 RLU.

The binders below were run against recombinant homotrimeric HA A/Vietnam/1203/04 H5N1 (Influenza A virus A/VietNam/1203/2004(H5N1)) (assay: protein microarray, purified IgG, trimeric HA). Details: remark: other sources report otherwise.

With B1 as the binder, how does the Trimeric HA Binding: RLU read?
Its Trimeric HA Binding: RLU is 20000 RLU.

How did the Trimeric HA Binding: RLU turn out when B2 was run?
Its Trimeric HA Binding: RLU is 25900 RLU.

What follows are binders tested against recombinant soluble homotrimeric HA of A/Wisconsin/67/05 (H3N2) (Influenza A virus A/Wisconsin/67/2005(H3N2)) (assay: HA microarray, BCC supernatant). Details: remark: other sources report otherwise.

How did the Trimeric HA Binding: RLU turn out when B2 was run?
The Trimeric HA Binding: RLU was 7980 RLU.

Each binder was assayed against recombinant soluble homotrimeric HA of A/Netherlands/219/03 (H7N7) (Influenza A virus A/Netherlands/219/03(H7N7)) (assay: HA microarray, BCC supernatant). Details: remark: other sources report otherwise.

With B1 as the binder, how does the Trimeric HA Binding: RLU read?
The Trimeric HA Binding: RLU was 2340 RLU.

With B2 as the binder, how does the Trimeric HA Binding: RLU read?
The Trimeric HA Binding: RLU was 4340 RLU.

Each binder was assayed against recombinant soluble homotrimeric HA of A/Solomon Islands/3/06 (H1N1) (Influenza A virus A/Solomon Islands/3/2006(H1N1)) (assay: HA microarray, BCC supernatant). Details: remark: other sources report otherwise.

For B1, which Trimeric HA Binding: RLU is on record?
Its Trimeric HA Binding: RLU is 37900 RLU.

With B2 as the binder, how does the Trimeric HA Binding: RLU read?
Its Trimeric HA Binding: RLU is 44200 RLU.

The binders below were run against recombinant soluble homotrimeric HA of A/chicken/Vietnam/NCVD-016/08 (H5N1) (Influenza A virus A/chicken/Vietnam/NCVD-016/2008(H5N1)) (assay: HA microarray, BCC supernatant). Details: remark: other sources report otherwise.

B1 was tested. Which Trimeric HA Binding: RLU did it give?
Its Trimeric HA Binding: RLU is 48900 RLU.

How did the Trimeric HA Binding: RLU turn out when B2 was run?
The Trimeric HA Binding: RLU was 56600 RLU.

The binders below were run against recombinant soluble homotrimeric HA of A/Indonesia/5/05 (H5N1) (Influenza A virus A/Indonesia/5/2005(H5N1)) (assay: HA microarray, BCC supernatant). Details: remark: other sources report otherwise.

For B1, which Trimeric HA Binding: RLU is on record?
Its Trimeric HA Binding: RLU is 45800 RLU.

For B2, which Trimeric HA Binding: RLU is on record?
Its Trimeric HA Binding: RLU is 46400 RLU.

The binders below were run against recombinant soluble homotrimeric HA of A/Hong Kong/2108/03 (H9N2) (Influenza A virus A/HK/2108/2003(H9N2)) (assay: HA microarray, BCC supernatant). Details: remark: other sources report otherwise.

With B1 as the binder, how does the Trimeric HA Binding: RLU read?
Its Trimeric HA Binding: RLU is 189 RLU.

B2 was tested. Which Trimeric HA Binding: RLU did it give?
The Trimeric HA Binding: RLU was 165 RLU.

Each binder was assayed against recombinant soluble homotrimeric HA of A/Anhui/1/05 (H5N1) (Influenza A virus A/Anhui/1/2005(H5N1)) (assay: HA microarray, BCC supernatant). Details: remark: other sources report otherwise.

How did the Trimeric HA Binding: RLU turn out when B1 was run?
The Trimeric HA Binding: RLU was 5700 RLU.

For B2, which Trimeric HA Binding: RLU is on record?
Its Trimeric HA Binding: RLU is 6860 RLU.

Each binder was assayed against recombinant soluble homotrimeric HA of A/northern shoveler/California/HKWF115/07 (H6) (Influenza A virus A/northern shoveler/California/HKWF115/2007(H6N1)) (assay: HA microarray, BCC supernatant). Details: remark: other sources report otherwise.

With B1 as the binder, how does the Trimeric HA Binding: RLU read?
Its Trimeric HA Binding: RLU is 46900 RLU.

How did the Trimeric HA Binding: RLU turn out when B2 was run?
Its Trimeric HA Binding: RLU is 52400 RLU.

The binders below were run against recombinant soluble homotrimeric HA of A/Vietnam/1203/04 (H5N1) (Influenza A virus A/VietNam/1203/2004(H5N1)) (assay: HA microarray, BCC supernatant). Details: remark: other sources report otherwise.

Which Trimeric HA Binding: RLU does the source give for B1 here?
The Trimeric HA Binding: RLU was 3380 RLU.

How did the Trimeric HA Binding: RLU turn out when B2 was run?
Its Trimeric HA Binding: RLU is 3440 RLU.

Each binder was assayed against recombinant soluble homotrimeric HA of A/California/4/09 (H1N1) (Influenza A virus A/California/04/2009(H1N1)) (assay: HA microarray, BCC supernatant). Details: remark: other sources report otherwise.

B1 was tested. Which Trimeric HA Binding: RLU did it give?
Its Trimeric HA Binding: RLU is 34700 RLU.

With B2 as the binder, how does the Trimeric HA Binding: RLU read?
Its Trimeric HA Binding: RLU is 30100 RLU.

These binders were tested against recombinant soluble homotrimeric HA of A/duck/Yangzhou/02/05 (H8N4) (Influenza A virus A/duck/Yangzhou/02/2005(H8N4)) (assay: HA microarray, BCC supernatant). Details: remark: other sources report otherwise.

How did the Trimeric HA Binding: RLU turn out when B2 was run?
Its Trimeric HA Binding: RLU is 46500 RLU.

What follows are binders tested against recombinant soluble homotrimeric HA of A/Japan/305/57 (H2N2) (Influenza A virus A/Japan/305/1957(H2N2)) (assay: HA microarray, BCC supernatant). Details: remark: other sources report otherwise.

Which Trimeric HA Binding: RLU does the source give for B1 here?
Its Trimeric HA Binding: RLU is 5110 RLU.

For B2, which Trimeric HA Binding: RLU is on record?
Its Trimeric HA Binding: RLU is 50600 RLU.
